# Assay results: paper PMC8939769 (2022)
# B1: AZD8895 (tixagevimab) (antibody, V domains shown)
# VH: QMQLVQSGPEVKKPGTSVKVSCKASGFTFMSSAVQWVRQARGQRLEWIGWIVIGSGNTNYAQKFQERVTITRDMSTSTAYMELSSLRSEDTAVYYCAAPYCSSISCNDGFDIWGQGTMVTVSS
# VL: not shown
# Biological target: SARS-CoV-2 spike protein receptor binding domain (RBD) (SARS-CoV-2, UniProt P0DTC2 319-541)
# Assay: ELISA
binder,measurement,value
B1,IC50,0.0477 µg/mL
